This is an account of results in the RNAGym collection of RNA variant scans (doi:10.1093/nar/gkz1192).

B1: CPEB3 Ribozyme (parent)
chain: UAACAGGGGGCCACAGCAGAAGCGUUCACGUCGCAGCCCCUGUCAGAUUCUGGUGAAUCUGCGAAUUCUGCUGUAUAUCUC

Variants of B1 are the subject of this series. The experiment in a line: self-cleavage, relative activity (ratio to wild type); higher = more cleavage; in vitro, sequencing. The essentials: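 Relative activity was defined as the cleaved/total read fraction for a variant divided by the same fraction for the unmutated ribozyme. CPEB3 self-cleaving ribozyme libraries were made by rounds of error-prone PCR, barcoded, and transcribed in vitro with T7 RNA polymerase for 5 hours at 37°C, and cleavage ran through transcription plus a 15 min DNase I step before EDTA. Illumina sequencing of template-switched reverse transcripts gave the reads, and DNA sequencing mapped the barcodes. Averages come from three batches, using variants with at least 5 reads.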
For the variant UAACAGGGGGCCACAGCAGAAGCGUUCGCGUCGCAGCCCCUGUCAGAUUCUGGUGAAUCUGCGAAUUCUGCUGUAUAACUC [A28G U78A], the self-cleavage was found to be 0.71.

Regarding UAACAGGGGGCCACAGCAGAAGCGUUCGCGUCGCAGCCCCUGUCAGAUUCUGGUGAAUCUGCGAAUUCUGCUGUAUACCUC [A28G U78C], the self-cleavage worked out at 0.61.

For UAACAGGGGGCCACAGCAGAAGCGUUCGCGUCGCAGCCCCUGUCAGAUUCUGGUGAAUCUGCGAAUUCUGCUGUAUAGCUC [A28G U78G], the self-cleavage is 0.67.

For the variant UAACAGGGGGCCACAGCAGAAGCGUUCUCGUCGCAGCCCCUGUCAGGUUCUGGUGAAUCUGCGAAUUCUGCUGUAUAUCUC [A28U A47G], the self-cleavage is 0.89.

Regarding UAACAGGGGGCCACAGCAGAAGCGUUCUCGUCGCAGCCCCUGUCAGUUUCUGGUGAAUCUGCGAAUUCUGCUGUAUAUCUC [A28U A47U], the self-cleavage came to 0.67.

For the variant UAACAGGGGGCCACAGCAGAAGCGUUCGCGUCGCAGCCCCUGUCAGAUUCUGGUGAAUCUGCGAAUUCUGCUGAAUAUCUC [A28G U74A], the self-cleavage amounted to 1.06.

In the case of UAACAGGGGGCCACAGCAGAAGCGUUCGCGUCGCAGCCCCUGUCAGAUUCUGGUGAAUCUGCGAAUUCUGCUGGAUAUCUC [A28G U74G], the self-cleavage is 1.08.

On to UAACAGGGGGCCACAGCAGAAGCGUUCGCGUCGCAGCCCCUGUCAGAUUCUGGUGAAUCUGCGAAUUCUGCUGCAUAUCUC [A28G U74C], for which the self-cleavage was determined as 1.

For UAACAGGGGGCCACAGCAGAAGCGUUCGCGUCGCAGCCCCUGUCAGAUUCUGGUGAAUCUGCGAAUUCUGCGGUAUAUCUC [A28G U72G], the self-cleavage came to 0.56.

For the variant UAACAGGGGGCCACAGCAGAAGCGUUCGCGUCGCAGCCCCUGUCAGAUUCUGGUGAAUCUGCGAAUUCUGCCGUAUAUCUC [A28G U72C], the self-cleavage came out at 0.67.

As to UAACAGGGGGCCACAGCAGAAGCGUUCUCGUCGCAGCCCCUGUCAGAUUCUGGUGGAUCUGCGAAUUCUGCUGUAUAUCUC [A28U A56G], the self-cleavage is 0.53.

Take UAACAGGGGGCCACAGCAGAAGCGUUCUCGUCGCAGCCCCUGUCAGAUUCUGGUGUAUCUGCGAAUUCUGCUGUAUAUCUC [A28U A56U]: the self-cleavage was 0.57.

Turning to UAACAGGGGGCCACAGCAGAAGCGUUCUCGUCGCAGCCCCUGUCAGAUUCUGGUGAAUCUGCGAAUUCUGCUGUAUAUCUC [A28U], the self-cleavage was found to be 0.81.

Regarding UAACAGGGGGCCACAGCAGAAGCGUUCUCGUCGCUGCCCCUGUCAGAUUCUGGUGAAUCUGCGAAUUCUGCUGUAUAUCUC [A28U A35U], the self-cleavage amounted to 0.35.

On to UAACAGGGGGCCACAGCAGAAGCGUUCUCGUCGCGGCCCCUGUCAGAUUCUGGUGAAUCUGCGAAUUCUGCUGUAUAUCUC [A28U A35G], for which the self-cleavage came out at 1.22.

As for UAACAGGGGGCCACAGCAGAAGCGUUCUCGUCGCCGCCCCUGUCAGAUUCUGGUGAAUCUGCGAAUUCUGCUGUAUAUCUC [A28U A35C], the self-cleavage is 0.47.

Turning to UAACAGGGGGCCACAGCAGAAGCGUUCUCGUCGCAGCCCCUGUCAGAUUCUGGUGAAUCUGCGAUUUCUGCUGUAUAUCUC [A28U A65U], the self-cleavage came out at 0.33.

UAACAGGGGGCCACAGCAGAAGCGUUCUCGUCGCAGCCCCUGUCAGAUUCUGGUGAAUCUGCGAGUUCUGCUGUAUAUCUC [A28U A65G]: the self-cleavage came out at 0.35.

Regarding UAACAGGGGGCCACAGCAGAAGCGUUCUCGUCGCAGCCCCUGUCUGAUUCUGGUGAAUCUGCGAAUUCUGCUGUAUAUCUC [A28U A45U], the self-cleavage turned out to be 0.4.

For UAACAGGGGGCCACAGCAGAAGCGUUCUCGUCGCAGCCCCUGUCGGAUUCUGGUGAAUCUGCGAAUUCUGCUGUAUAUCUC [A28U A45G], the self-cleavage amounted to 0.47.

UAACAGGGGGCCACAGCAGAAGCGUUCUCGUCGCAGCCCCUGUCCGAUUCUGGUGAAUCUGCGAAUUCUGCUGUAUAUCUC [A28U A45C]: the self-cleavage was 0.25.

Turning to UAACAGGGGGCCACAGCAGAAGCGUUCUCGUCGCAGCCCCUGUCAGAUUCUGGUGAGUCUGCGAAUUCUGCUGUAUAUCUC [A28U A57G], the self-cleavage amounted to 0.64.

On to UAACAGGGGGCCACAGCAGAAGCGUUCUCGUCGCAGCCCCUGUCAGAUUCUGGUGAUUCUGCGAAUUCUGCUGUAUAUCUC [A28U A57U], for which the self-cleavage came to 0.5.

Take UAACAGGGGGCCACAGCAGAAGCGUUCGCGUCGCAGCCCCUGUCAGAUUCUGGUGAAUCUGCGAAUUCUGCUGUAUAUCAC [A28G U80A]: the self-cleavage was 0.72.

Take UAACAGGGGGCCACAGCAGAAGCGUUCGCGUCGCAGCCCCUGUCAGAUUCUGGUGAAUCUGCGAAUUCUGCUGUAUAUCCC [A28G U80C]: the self-cleavage turned out to be 0.81.

For UAACAGGGGGCCACAGCAGAAGCGUUCUCGUCGCAGCCCCUGUCAGAUUCUGGUGAAUCUGCGAAUUCUGCUGUAUGUCUC [A28U A77G], the self-cleavage worked out at 0.8.

As to UAACAGGGGGCCACAGCAGAAGCGUUCGCGUCGCAGCCCCUGUCAGAUUCUGGUGAAUCUGCGAAUUCUGCUGUAGAUCUC [A28G U76G], the self-cleavage turned out to be 0.56.

On to UAACAGGGGGCCACAGCAGAAGCGUUCGCGUCGCAGCCCCUGUCAGAUUCUGGUGAAUCUGCGAAUUCUGCUGUAAAUCUC [A28G U76A], for which the self-cleavage came out at 0.61.

With UAACAGGGGGCCACAGCAGAAGCGUUCGCGUCGCAGCCCCUGUCAGAUUCUGGUGAAUCUGCGAAUUCUGCUGUACAUCUC [A28G U76C], the self-cleavage was found to be 0.67.

As to UAACAGGGGGCCACAGCAGAAGCGUUCUCGUCGCAGCCCCUGUCAGAUUCUGGUGAAUCUGCGAAUUCUGCUGUUUAUCUC [A28U A75U], the self-cleavage stood at 0.99.

As for UAACAGGGGGCCACAGCAGAAGCGUUCUCGUCGCAGCCCCUGUCAGAUUCUGGUGAAUCUGCGAAUUCUGCUGUGUAUCUC [A28U A75G], the self-cleavage stood at 0.71.

For the variant UAACAGGGGGCCACAGCAGAAGCGUUCUCGUCGCAGCCCCUGUCAGAUUCUGGUGAAUCUGCGCAUUCUGCUGUAUAUCUC [A28U A64C], the self-cleavage amounted to 0.34.

On to UAACAGGGGGCCACAGCAGAAGCGUUCUCGUCGCAGCCCCUGUCAGAUUCUGGUGAAUCUGCGGAUUCUGCUGUAUAUCUC [A28U A64G], for which the self-cleavage stood at 0.63.

Regarding UAACAGGGGGCCACAGCAGAAGCGUUCUCGUCGCAGCCCCUGUCAGAUUCUGGUGAAUCUGCGUAUUCUGCUGUAUAUCUC [A28U A64U], the self-cleavage was found to be 0.31.
